Assay results reported in patent US20230279089A1 (GlaxoSmithKline, published 2023).
Substitutions are numbered along the chain they refer to.

B1: 13Y039-4B06-4324 (antibody, human IgG1, kappa, V domains shown)
VH: QVQLVQSGAEVKKPGASVKVSCKASGYTFRGYYMSWVRQAPGQGLEWMGWINPMSGETNYAQKFQGRVTMTRDTSISTAYMELSRLRSDDTAVYYCARDTGELDGMNWYFDLWGRGTLVTVSS
VL: EIVLTQSPATLSLSPGERATLSCRASQSVSSYLAWYQQKPGQAPRLLIYDASNRATGIPARFSGSGSGTDFTLTISSLEPEDFAVYYCQQSDSWPPTFGGGTKVEIKR
notes: Fully human IgG1 LAGA, kappa; HEK expressed
B2: 13Y039-4B06-4327 (antibody, human IgG1, kappa, V domains shown)
VH: B1 VH with R30P, S35T, W50N, M54N, E57W
VL: B1 VL
notes: as for B1
B3: 13Y039-4B06-4376 (antibody, human IgG1, kappa, V domains shown)
VH: B1 VH with R30M, S35N, M54S
VL: B1 VL
notes: as for B1
B4: 13Y039-4B06-4351 (antibody, human IgG1, kappa, V domains shown)
VH: B1 VH with R30S, M54N, N59F
VL: B1 VL
notes: as for B1
B5: 13Y039-4B06-4364 (antibody, human IgG1, kappa, V domains shown)
VH: B1 VH with M54N, N59I
VL: B1 VL
notes: as for B1
B6: 13Y039-4B06-4325 (antibody, human IgG1, kappa, V domains shown)
VH: B1 VH with R30W, M54Q
VL: B1 VL
notes: as for B1
B7: 13Y039-4B06-4373 (antibody, human IgG1, kappa, V domains shown)
VH: B1 VH with G31S, S35N, W50I, M54S, N59S, I76T, A79V, R85S, D89E
VL: B1 VL
notes: as for B1
B8: 13Y039-4B06-4328 (antibody, human IgG1, kappa, V domains shown)
VH: B1 VH with R30H, S35N, M54L
VL: B1 VL
notes: as for B1
B9: 13Y039-4B06-4348 (antibody, human IgG1, kappa, V domains shown)
VH: B1 VH with R30G, M54N, N59Y
VL: B1 VL
notes: as for B1
B10: 13Y039-127G03-2890 (antibody, human IgG1, kappa, V domains shown)
VH: QVQLVQSGAEVKKPGSSVKVSCKASGGTFSSYAISWVRQAPGQGLEWMGGIIPVFGSAYYAQKFQGRVTITADESTSTAYMELSSLRSEDTAVYYCAGEGRAYYGSESYDDSDYMDVWGKGTTVTVSS
VL: DIQMTQSPSSLSASVGDRVTITCQASQDISNYLNWYQQKPGKAPKLLIYDASNLETGVPSRFSGSGSGTDFTFTISSLQPEDIATYYCQQADIFPLTFGGGTKVEIKR
notes: as for B1
B11: 13Y039-152B02-2940 (antibody, human IgG1, kappa, V domains shown)
VH: QVQLVQSGAEVKKPGSSVKVSCKASGGTFSSDAISWVRQAPGQGLEWMGGIITNFGTATYAQKFQGRVTITADESTSTAYMELSSLRSEDTAVYYCARDVGVQLVYHGAFDIWGQGTMVTVSS
VL: B10 VL with E55A, A91D, I93Y, F94L, L96I
notes: as for B1
B12: 13Y039-152B02-2948 (antibody, human IgG1, kappa, V domains shown)
VH: B11 VH with S31D, D32F, T53P, N54I, F55Y, T59S, Q65L
VL: B10 VL with E55A, A91D, I93Y, F94L, L96I
notes: as for B1
B13: 13Y039-152B02-2935 (antibody, human IgG1, kappa, V domains shown)
VH: B11 VH with S31E, D32S, T53P, N54T, G56D, A58T, T59N
VL: B10 VL with E55A, A91D, I93Y, F94L, L96I
notes: as for B1

Molecular target: T1, Cyno TLL1 (cyno, UniProt A0A1D5QYV0 148-1013 (rhesus entry))
T1 sequence: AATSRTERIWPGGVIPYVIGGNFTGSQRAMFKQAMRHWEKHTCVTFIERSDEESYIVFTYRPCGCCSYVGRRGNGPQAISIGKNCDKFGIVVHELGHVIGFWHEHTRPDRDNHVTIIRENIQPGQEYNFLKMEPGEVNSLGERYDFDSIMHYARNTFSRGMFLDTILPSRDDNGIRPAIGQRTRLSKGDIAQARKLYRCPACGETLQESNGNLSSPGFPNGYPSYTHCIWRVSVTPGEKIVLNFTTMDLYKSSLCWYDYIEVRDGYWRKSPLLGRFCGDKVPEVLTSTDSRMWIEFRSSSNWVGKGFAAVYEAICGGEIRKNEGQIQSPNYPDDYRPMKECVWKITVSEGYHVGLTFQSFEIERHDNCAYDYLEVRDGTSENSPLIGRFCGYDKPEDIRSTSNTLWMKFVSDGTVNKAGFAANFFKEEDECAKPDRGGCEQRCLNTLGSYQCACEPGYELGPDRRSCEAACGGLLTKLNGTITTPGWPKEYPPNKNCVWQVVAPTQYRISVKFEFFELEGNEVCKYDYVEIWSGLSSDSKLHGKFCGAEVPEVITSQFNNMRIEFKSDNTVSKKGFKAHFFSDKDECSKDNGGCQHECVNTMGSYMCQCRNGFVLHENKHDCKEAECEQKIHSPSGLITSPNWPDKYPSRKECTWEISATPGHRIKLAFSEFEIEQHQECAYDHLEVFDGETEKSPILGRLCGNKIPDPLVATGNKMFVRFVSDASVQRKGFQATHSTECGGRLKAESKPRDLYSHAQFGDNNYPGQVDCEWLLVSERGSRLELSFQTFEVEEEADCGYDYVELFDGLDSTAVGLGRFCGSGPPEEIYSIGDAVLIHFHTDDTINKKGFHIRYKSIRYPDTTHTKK
Assay: cell-based or functional assay

Row | Binder | IC50, FRET enzyme activity, 750 pM biotinylated cynoTLL-1
1 | B1 | 70 pM
2 | B2 | 20 pM
3 | B3 | 0.15 nM
4 | B4 | 0.13 nM
5 | B5 | 0.11 nM
6 | B6 | 50 pM
7 | B7 | 80 pM
8 | B8 | 70 pM
9 | B9 | 0.18 nM
10 | B10 | 0.22 nM
11 | B11 | 60 pM
12 | B12 | 70 pM
13 | B13 | 0.11 nM

Molecular target: T2, Mouse TLL1 (mouse, UniProt Q62381 148-1013, limits assumed)
T2 sequence (looked up): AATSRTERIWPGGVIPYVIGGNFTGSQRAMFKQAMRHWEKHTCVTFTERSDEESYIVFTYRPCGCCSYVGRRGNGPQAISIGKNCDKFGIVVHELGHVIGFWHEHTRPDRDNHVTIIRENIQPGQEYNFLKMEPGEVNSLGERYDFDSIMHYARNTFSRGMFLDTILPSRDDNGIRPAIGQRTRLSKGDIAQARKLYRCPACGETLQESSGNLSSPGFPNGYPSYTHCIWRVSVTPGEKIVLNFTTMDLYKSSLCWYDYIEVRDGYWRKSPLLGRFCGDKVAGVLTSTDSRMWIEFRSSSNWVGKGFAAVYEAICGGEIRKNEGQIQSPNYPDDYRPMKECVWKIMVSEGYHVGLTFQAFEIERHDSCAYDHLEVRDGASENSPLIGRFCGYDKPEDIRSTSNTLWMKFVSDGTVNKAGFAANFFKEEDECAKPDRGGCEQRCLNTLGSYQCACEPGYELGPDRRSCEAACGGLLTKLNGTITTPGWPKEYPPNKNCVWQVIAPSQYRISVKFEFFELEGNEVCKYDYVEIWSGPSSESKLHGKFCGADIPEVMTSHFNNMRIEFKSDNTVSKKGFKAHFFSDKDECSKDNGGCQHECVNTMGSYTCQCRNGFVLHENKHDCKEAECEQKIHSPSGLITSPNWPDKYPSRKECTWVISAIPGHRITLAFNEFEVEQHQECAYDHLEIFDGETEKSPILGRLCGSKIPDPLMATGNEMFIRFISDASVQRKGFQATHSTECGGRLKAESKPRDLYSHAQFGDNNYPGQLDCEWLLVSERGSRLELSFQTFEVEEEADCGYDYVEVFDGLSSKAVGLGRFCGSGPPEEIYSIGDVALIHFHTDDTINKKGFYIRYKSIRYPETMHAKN
Assay: cell-based or functional assay

Row | Binder | IC50, FRET enzyme activity, 800 pM biotinylated mTLL-1
14 | B1 | 0.1 nM
15 | B2 | 40 pM
16 | B3 | 0.16 nM
17 | B4 | 0.14 nM
18 | B5 | 0.13 nM
19 | B6 | 70 pM
20 | B7 | 0.13 nM
21 | B8 | 70 pM
22 | B9 | 0.12 nM
23 | B10 | 0.88 nM
24 | B11 | 0.1 nM
25 | B12 | 0.11 nM
26 | B13 | 70 pM

Molecular target: T3, Human TLL2 (human, UniProt Q9Y6L7 150-1015, limits assumed)
T3 sequence (looked up): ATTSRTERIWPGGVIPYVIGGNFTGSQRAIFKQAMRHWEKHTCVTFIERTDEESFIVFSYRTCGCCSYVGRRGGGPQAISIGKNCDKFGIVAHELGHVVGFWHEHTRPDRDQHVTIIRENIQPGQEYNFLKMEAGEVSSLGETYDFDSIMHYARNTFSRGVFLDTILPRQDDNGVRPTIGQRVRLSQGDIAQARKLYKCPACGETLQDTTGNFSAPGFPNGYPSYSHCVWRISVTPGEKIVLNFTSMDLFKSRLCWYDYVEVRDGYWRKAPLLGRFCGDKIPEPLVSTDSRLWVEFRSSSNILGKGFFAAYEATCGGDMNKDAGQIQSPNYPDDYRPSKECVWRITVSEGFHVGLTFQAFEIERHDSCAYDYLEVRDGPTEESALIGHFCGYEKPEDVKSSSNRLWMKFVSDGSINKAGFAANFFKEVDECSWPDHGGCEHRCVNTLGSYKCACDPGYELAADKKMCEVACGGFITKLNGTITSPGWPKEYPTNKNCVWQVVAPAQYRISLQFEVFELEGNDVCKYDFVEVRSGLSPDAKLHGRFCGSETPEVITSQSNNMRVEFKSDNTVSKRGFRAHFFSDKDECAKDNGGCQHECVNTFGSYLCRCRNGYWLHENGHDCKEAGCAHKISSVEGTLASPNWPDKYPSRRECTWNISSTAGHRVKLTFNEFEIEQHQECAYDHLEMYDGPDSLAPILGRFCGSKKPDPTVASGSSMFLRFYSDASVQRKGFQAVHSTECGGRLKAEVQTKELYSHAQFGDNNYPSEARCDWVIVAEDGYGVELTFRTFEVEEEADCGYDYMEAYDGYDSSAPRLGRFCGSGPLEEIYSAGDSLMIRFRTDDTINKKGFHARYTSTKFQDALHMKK
Assay: cell-based or functional assay

Row | Binder | IC50, FRET enzyme activity, 500 pM huTLL-2
27 | B1 | 40 pM
28 | B2 | 30 pM
29 | B3 | 90 pM
30 | B4 | 30 pM
31 | B5 | 50 pM
32 | B6 | 50 pM
33 | B7 | 0.1 nM
34 | B8 | 20 pM
35 | B9 | 40 pM
36 | B10 | 0.15 nM
37 | B11 | 0.28 nM
38 | B12 | 0.86 nM
39 | B13 | 0.2 nM
